Laboratory results taken from paper PMC12813973, “Consequences of Peptide Macrocyclization Revealed by Virus-Inspired β‑Hairpin Mimetics” (ACS Chemical Biology, 2025).
Where two headings read alike, the source gives them in different places.

Experiments:
[1] = biological target: T1, 018 minimal fragment (peptide 1) 11-30 (Vaccinia virus), P17356
[2] = biological target: T1, 018 minimal fragment (peptide 1) 11-30 …; experiment: ITC
[3] = biological target: T1, 018 minimal fragment (peptide 1) 11-30 …; experiment: competition

T1 sequence (P17356 11-30): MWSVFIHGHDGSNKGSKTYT

B1: STAT1, P42224 (protein)
chain: SQWYELQQLDSKFLEQVHQLYDDSFPMEIRQYLAQWLEKQDWEHAANDVSFATIRFHDLLSQLDDQYSRFSLENNFLLQHNIRKSKRNLQDNFQEDPIQMSMIIYSCLKEERKILENAQRFNQAQSGNIQSTVMLDKQKELDSKVRNVKDKVMCIEHEIKSLEDLQDEYDFKCKTLQNREHETNGVAKSDQKQEQLLLKKMYLMLDNKRKEVVHKIIELLNVTELTQNALINDELVEWKRRQQSACIGGPPNACLDQLQNWFTIVAESLQQVRQQLKKLEELEQKYTYEHDPITKNKQVLWDRTFSLFQQLIQSSFVVERQPCMPTHPQRPLVLKTGVQFTVKLRLLVKLQELNYNLKVKVLFDKDVNERNTVKGFRKFNILGTHTKVMNMEESTNGSLAAEFRHLQLKEQKNAGTRTNEGPLIVTEELHSLSFETQLCQPGLVIDLETTSLPVVVISNVSQLPSGWASILWYNMLVAEPRNLSFFLTPPCARWAQLSEVLSWQFSSVTKRGLNVDQLNMLGEKLLGPNASPDGLIPWTRFCKENINDKNFPFWLWIESILELIKKHLLPLWNDGCIMGFISKERERALLKDQQPGTFLLRFSESSREGAITFTWVERSQNGGEPDFHAVEPYTKKELSAVTFPDIIRNYKVMAAENIPENPLKYLYPNIDKDHAFGKYYSRPKEAPEPMELDGPKGTGYIKTELISVSEVHPSRLQTTDNLLPMSPEEFDEVSRIVGSVEFDSMMNTV
In the case of B1, the Kd [1] is reported as 73 nM, the Kd [2] is reported as 533 nM and the IC50 [3] is reported as 4300 nM.
